From publication PMC5923107 (Antimicrobial Agents and Chemotherapy, 2018)

Experiments:
Conditions in all cases: both partners purified
[1] = molecular target: T1, biotinylated HA antigen of B/Florida/04/2006 (Influenza B virus B/Florida/4/2006, UniProt E1TVD5, strain); assay: BLI
T1 construct: also called HA of B/Florida/04/2006

[2] = molecular target: T2, hemagglutinin (HA) of influenza A virus A/California/07/2009 (H1N1, group 1) (Influenza A virus A/California/07/2009 …, UniProt C3W5X2, strain); assay: ELISA
T2 construct: also called A/California/07/2009 HA

[3] = molecular target: T3, hemagglutinin (HA) of influenza A virus A/Sydney/05/1997 (H3N2, group 2) (Influenza A virus A/Sydney/5/1997 (H3N2), UniProt C3PR59, strain); assay: ELISA
T3 construct: also called A/Sydney/05/1997 HA

Binder | Kd [1] | binding result [2] | binding result [3] | binding result [1]
TRL845 (antibody, V domains shown, also called MAb TRL845) VH: QVQLVQSGGDLVQPGGSLRLSCAASGFTFSRYSMNWVRQAPGMGLEWVAYISDTSRTIYYADSVKGRFTISRDNAKNSLYLQMKSLRDEDTAVYYCARDPDTPFVRAFDSWGQGTLVTVSS VL: DIVLTQSPSFLSASVGDRVTITCRASQLISSYFAWYQQKPGKPPKLLIYAASTLQSGVPSRFSGSGSGTQFSLTISSLQPEDFATYYCQQLNSYPPITFGQGTRLEIK | ≤ 0.2 nM | no binding (tested: 5 μg/ml (30 nM)) | no binding (tested: 5 μg/ml (30 nM)) | –
TRL849 (antibody, V domains shown, also called MAb TRL849) VH: QVQLVESGPGLVKPSQTLSLTCTVSGGSISNGGYHWSWIRQHPGKGLEWIGNIYYRGSTFYDPSLKSRVTISVDTSKSQFSLKLTSVTAADTAVYYCARMPLANYDLLTGLYIGAFDLWGQGTMVTVSS VL: DIVLTQSPATLSVSPGERATLSCRASQSVNRNLAWFQQIPGQAPRLLIFDASTRAADIPARFSGGGSGAEFTLTVSSLQPEDFAVYYCQQYDKWPPGFGQGTKVEIK | ≤ 0.2 nM | no binding (tested: 5 μg/ml (30 nM)) | no binding (tested: 5 μg/ml (30 nM)) | –
TRL847 (antibody, V domains shown, also called MAb TRL847) VH: QVQLVESGGGLVQPGGSLRLSCVASGFTFSRFSMNWVRQAPGMGLEWVSYISDTGRTIYYADSVKGRFTISRDNDKNTLYLQMKSLRDEDSAFYYCARDPDTPFVRAFDSWGQGVLVTVSS VL: DIVMTQSPSFLSASVGDRVTITCRTSQVISSYLAWYQQRPGKAPKLLIYAASTLQSGVPSRFSGSGSGTRFSLTISNLQPEDFATYFCQQLTTYPPITFGQGTRLEIK | – | no binding (tested: 5 μg/ml (30 nM)) | no binding (tested: 5 μg/ml (30 nM)) | binds
TRL848 (antibody, V domains shown, also called MAb TRL848) VH: QVQLLESGGDVVQPGTSLRLSCAASGFSLWTSGMHWVRQAPGKGLEWVAVMSYDETKKYYADSVRGRFSISRDNSRNTLYLQMNSLRVEDTAVYFCAKPRLDYLDYFHAADSWGQGTLVSVSS VL: DIVLTQPPSVSVAPGQTATITCGGNYIGSKSVNWYQQRPGHAPVLVVYDDSDRPSGIPDRFSGSNSRSTATTATLTISRVEAGDEADYYCQVWETSEDLWVFGGGTKLTVL | – | no binding (tested: 5 μg/ml (30 nM)) | no binding (tested: 5 μg/ml (30 nM)) | binds
TRL854 (antibody, V domains shown, also called MAb TRL854) VH: QVQLVESGAEVKKPGASVRVSCKGSGYTFTAYHMHWVRQAPGQGFEWVGWINPNSGATYYTSTFEGRVTMTRDTSITTAYMELSSLRSDDTAVYYCATDIVVERDASLGGFNSYGMDVWGQGTTVTVSS VL: DIEMTQSPLSLPVTPGEPASISCRSSQSLLHSNGYNHLAWYLQKPGRSPHLLIYLASTRASGVPDRFSGSGSGTDFTLKISRVEAEDVGIYYCMQSLQTSITFGQGTRLEIK | – | no binding (tested: 5 μg/ml (30 nM)) | no binding (tested: 5 μg/ml (30 nM)) | binds
